# Data taken from the RNAGym collection of RNA variant scans (doi:10.1073/pnas.2313332121).
# B1: TPR t1 (parent)
# chain: GACCAAUCUGCCCUCAGAGCUCGAGAACAUCUUCGGAUGCAGAGGAGGCAGGCUUCGGUGGCGCGAUAGCGCCAACGUCCUCAACCUCCAAUGCAUCCCACCACAUGAUGAUGCCUGAAGAGCCUUGGUUUUUUG
# Variants of: B1
# Assay: polymerase ribozyme fitness, log enrichment relative to wild type (log ratio); higher = more active; in vitro selection for triplet polymerase activity
# How it was run: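 In triplicate, a single round of in vitro selection was run on each mutant library, PCR-built and transcribed, covering one subunit of a heterodimeric triplet polymerase ribozyme. Frozen incubation at −7 °C followed annealing with a biotinylated primer, partner subunit and triplets, and extended constructs were then gel-excised, streptavidin-captured and taken through RT-PCR. Fitness is the logarithm of genotype enrichment over wild-type enrichment, from inverse-variance-weighted replicate averages of Illumina-sequenced inputs and outputs. […] only genotypes with ≥10 input reads and ≥1 read per output were kept.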
row,Variant,polymerase ribozyme fitness (log ratio)
1,C40G C53G G77A U106C U116C,-3.58
2,G39U G48C U78G G113U,-4.42
3,C40G G61U A91U C104U,-3.37
4,C40G U92A U109A U116C,-5.03
5,C40A G63C C123U,-0.868
6,C40A G61A A105G,-4.93
7,G39U C62U C85A A90G A119U C123G U125G,-1.09
8,C40G G48U A105U,-3.14
9,C40A A43U C89U C102U U106C C123A,-6.44
10,G39U A46G U78A C89U A95U C97U,-2.4
11,G39C U126A,-2.89
12,C40G U55G C62U U78G,-2.04
13,C40G C123U,0.0444
14,C40G C123G,0.299
15,C40A C56U A119U G122A,-1.84
16,G39U A50C,-1.21
17,G39U C79G U96C,-4.66
18,G39C G63C C104A,-3.07
19,C40G G135U,-1.71
20,C40G G71U,-1.23
21,C40G G71U G117A,-2.71

row,Variant,polymerase ribozyme fitness (log ratio)
1,G39C A41U C72U A74U G113U C114U A121G,-1.73
2,G39U G63U G113A,-3.09
3,G39A G113C A119U,-3.54
4,G39U C94G G110A,-1.31
5,C40A A41G G42A A43G G122U,-3.41
6,G39U C70G G122A,-3.94
7,G39C C56G C72U,-1.49
8,C40A A41U,-2.43
9,C40A G71A U125A,-2.51
10,C40A G61U G93C C94G C124U,-1.28
11,C40G G107A,-6.63
12,C40A C72U G77C G110U,-3.75
13,C40A G69U,-0.43
14,C40A G69A,-4.81
15,G39U C70U,-2.34
16,G39U G69A U78A G120C U133C,-2.17
17,C40A A50U C89U,-1.95
18,C40G G69C C72U C89A,-3.57
19,C40G G45A,-2.11
20,G39U G128U,-3.06
21,G39U A91U U126G G128U,-3.6

row,Variant,polymerase ribozyme fitness (log ratio)
1,C40A C56G G60A,-3.73
2,G39U G48A C70U,-1.15
3,G39U A43U G52C C73G C94A C97G G110C,-7.55
4,C40A C49A C53U G110A U130G,-4.63
5,C40A G61A,-0.734
6,C40A G61U,-1.59
7,C40G G117U,-3.26
8,C40A C49A C86G,-3.35
9,C40A C56G U87G A95U C101A C124A U133C,-5.07
10,C40A C62U A91U G93C C104U G113A,-2.62
11,G39C C73A A74U,-0.844
12,C40G C72G C82U U106A,-2.01
13,G39U C88A,-2.37
14,G39U C88U,-0.766
15,C40A A111U,-4.74
16,C40A G61C C79G,-3.56
17,C40A G63A C79A C86A C104A C114U,-7.08
18,C40A C73U U125G,-1.92
19,G39U G60C G61A A118U,-1.64
20,G39U U78G,-0.403
21,G39U U78C,-0.554

row,Variant,polymerase ribozyme fitness (log ratio)
1,C40G C104A C124G,0.0636
2,G39U C104A G120A,-1.22
3,G39U C40G C64U U106A U109A G120C,-5.69
4,G39U U55A G60A,-0.52
5,C40A G60A G61A U112A,-3
6,C40G C89G,-2.85
7,C40A G77A,-1.33
8,C40A G77C,-1.98
9,G39U G48U A90U,-2.92
10,G39U C70U U96G G113U,-7.29
11,C40A G110A U116A,-5.12
12,G39A U92A,-3.56
13,G39A U92C,-2.34
14,C40A G63U U81A U129A,-5.05
15,C40A C89G C101A U130G,-5.66
16,G39U C73U C99U,-4.75
17,G39U C70U G117C G128A,-5.92
18,C40A A41U A50C C62A,-5.7
19,C40A A46U G69U C80U G110A U112G,-7.41
20,G39U C73U C114U G120A G127C,-3.02
21,G39C A43U C85A U112A C115U U130C,-4.22
